Measured values as given in patent US20200010567A1 (NEURIMMUNE, published 2020).

T1: GA4: H-(GA)4HHHHHH-NH2
T1 peptide: H-GAGAGAGAHHHHHH-NH2

T2: GA5: H-(GA)5HHHHHH-NH2
T2 peptide: H-GAGAGAGAGAHHHHHH-NH2

T3: GA2: H-(GA)2HHHHHH-NH2
T3 peptide: H-GAGAHHHHHH-NH2

T4: GA3: H-(GA)3HHHHHH-NH2
T4 peptide: H-GAGAGAHHHHHH-NH2

B1: NI-308.5G2 (antibody, V domains shown)
VH: EVQLVQSGADLRNPGASVTVSCTASGYHFADNAINWLRQAPGQRLEWMGWINIYSGNTKYSQNFQGRVTFTRNTSASTAFMHLRSLRSEDTAVYFCARDPDSSGYYLPYFDYWGQGTLVTVSS
VL: DIQLTQSPDSLTLSLGERATINCKSSQSVFYNSNNKNYLAWYQQKPGQPPKLLMYWASTRESGVTDRFSGSGSGTDFTLTITNLQAEDVAVYYCQQFYSSPLTFGGGTKVEIK
notes: Recombinant complete human IgG1, kappa
B2: NI-308.6B11 (antibody, V domains shown)
VH: EVQLVQSGAEVKRPGASVKVSCKVSGYTLTELSMHWVRQAPGKGLEWMGGFDPEDGETVYAQKFQGRVTMTEDTSTDTAYMELSSLRSEDTALYHCATYGSSWHWNEGNEGSYYFDYWGQGTLVTVSS
VL: CDIQMTQSPSSLSASVGDRVTITCQASQDISIYLNWYQQKPGKAPKLLIYDASNLETGVPSRFSGSGSGTDFTFTISGLQPEDVARYYCQQYDDLPITFGQGTRLEIK
notes: as for B1

Experiments:
[1] = biological target: T5, BSA-coupled (GP)15 DPR protein peptide (bovine, conjugated via a bifunctional linker (SMCC) to bovine serum albumin); assay: indirect ELISA, BSA-coupled peptide coated, antibody titrated [also D00014 FIG. 3G]
T5 construct: also called BSA-(GP)15
T5 sequence (peptide, as listed by the source limits assumed, chain 1 of 2): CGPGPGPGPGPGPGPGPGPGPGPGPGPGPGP
T5 sequence (P02769 25-607 limits assumed, chain 2 of 2): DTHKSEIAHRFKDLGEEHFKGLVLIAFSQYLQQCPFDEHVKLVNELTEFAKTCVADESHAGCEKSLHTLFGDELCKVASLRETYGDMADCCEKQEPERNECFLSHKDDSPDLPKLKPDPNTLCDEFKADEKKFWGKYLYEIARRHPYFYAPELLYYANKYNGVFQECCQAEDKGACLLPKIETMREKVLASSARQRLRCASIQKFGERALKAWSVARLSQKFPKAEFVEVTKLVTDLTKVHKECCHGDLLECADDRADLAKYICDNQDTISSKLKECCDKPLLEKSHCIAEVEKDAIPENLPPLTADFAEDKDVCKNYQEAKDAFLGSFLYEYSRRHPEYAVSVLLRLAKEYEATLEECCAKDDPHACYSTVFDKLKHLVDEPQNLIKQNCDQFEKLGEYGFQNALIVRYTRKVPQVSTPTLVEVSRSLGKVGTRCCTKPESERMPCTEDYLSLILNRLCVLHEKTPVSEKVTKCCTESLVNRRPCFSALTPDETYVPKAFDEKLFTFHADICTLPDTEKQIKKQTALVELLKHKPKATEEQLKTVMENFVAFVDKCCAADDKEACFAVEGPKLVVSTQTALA
Method: In brief, dipeptide repeat proteins were synthesized and purified by Schafer-N(Copenhagen, Denmark): (GA)₁₅: H-CHHHHHH(GA)₁₅-OH; (GP)₁₅: H-C(GP)₁₅-OH; (GR)₁₅: H-C(GR)₁₅-OH; (PA)₁₅: H-C(PA)₁₅-OH; (PR)₁₅: H—C(PR)₁₅-OH. DPR protein peptides were then conjugated via a bifunctional linker (SMCC) to bovine serum albumin (BSA). 96-well microplates (Corning Incorporated, Corning, USA) were coated with BSA-coupled or -uncoupled dipeptide repeat protein peptides at a concentration of either 5 μg/ml or 20 μg/ml in coating buffer (15 mM Na₂CO₃, 35 mM NaHCO₃, pH 9.42). Non-specific binding sites were blocked for 1 h at room temperature with PBS/0.1% Tween®-20 containing 2% BSA (Sigma-Aldrich, Buchs, Switzerland). Primary antibodies were diluted to the indicated concentrations and incubated 1 h at room temperature, followed by incubation with a donkey anti-human IgG Fcγ-specific antibody conjugated with HRP (Jackson ImmunoResearch Laboratories, Inc., West Grove, USA). Binding was determined by measurement of HRP activity in a standard colorimetric assay. EC₅₀ values were estimated by non-linear regression using GraphPad Prism software (San Diego, USA).

GA4: H-(GA)4HHHHHH-NH2 = biological target: T1, GA4: H-(GA)4HHHHHH-NH2; assay: indirect ELISA, His-tagged peptide coated at 50 ug/ml, antibody titrated [also D00027 FIG. 7M]
Excerpt: (§1) In brief, dipeptide repeat proteins were synthesized and purified by Schafer-N (Copenhagen, Denmark): GA₂₀: H-(GA)₂₀HHHHHH-NH₂; GA₁₀: H-(GA)₁₀HHHHHH-NH₂; GA₆: H-(GA)₆HHHHHH-NH₂; GA₅: H-(GA)₅HHHHHH-NH₂; GA₄: H-(GA)₄HHHHHH-NH₂; GA₃: H-(GA)₃HHHHHH-NH₂; GA₂: H-(GA)₂HHHHHH-NH₂; GP₂₀: H-(GP)₂₀HHHHHH-NH₂; GP₁₀: H-(GP)₁₀HHHHHH-NH₂; GP₆: H-(GP)₆HHHHHH-NH₂; GP₅: H-(GP)₅HHHHHH-NH₂; GP₄: H-(GP)₄HHHHHH-NH₂; GP₃: H-(GP)₃HHHHHH-NH₂; GP₂: H-(GP)₂HHHHHH-NH₂. GR₂₀: H-(GR)₂₀HHHHHH-NH₂; GR₁₀: H-(GR)₁₀HHHHHH-NH₂; GR₆: H-(GR)₆HHHHHH-NH₂; GR₅: H-(GR)₅HHHHHH-NH₂; GR₄: H-(GR)₄HHHHHH-NH₂; GR₃: H-(GR)₃HHHHHH-NH₂; GR₂: H-(GR)₂HHHHHH-NH₂; PA₂₀: H-(PA)₂₀HHHHHH-NH₂; PA₁₀: H-(PA)₁₀HHHHHH-NH₂; PA₆: H-(PA)₆HHHHHH-NH₂; PA₅: H-(PA)₅HHHHHH-NH₂; PA₄: H-(PA)₄HHHHHH-NH₂; PA₃: H-(PA)₃HHHHHH-NH₂; PA₂: H-(PA)₂HHHHHH-NH₂; PR₂₀: H-(PR)₂₀HHHHHH-NH₂; PR₁₀: H-(PR)₁₀HHHHHH-NH₂; PR₆: H-(PR)₆HHHHHH-NH₂; PR₅: H-(PR)₅HHHHHH-NH₂; PR₄: H-(PR)₄HHHHHH-NH₂; PR₃: H-(PR)₃HHHHHH-NH₂; PR₂: H-(PR)₂HHHHHH-NH₂. 96-well microplates (Corning Incorporated, Corning, USA) were coated with dipeptide repeat protein peptides at a concentration of 50 μg/ml in coating buffer (15 mM Na₂CO₃, 35 mM NaHCO₃, pH 9.42). Non-specific binding sites were blocked for 1 h at room temperature with PBS/0.1% Tween®-20 containing 2% BSA (Sigma-Aldrich, Buchs, Switzerland). Primary antibodies were diluted to the indicated concentrations and incubated 1 h at room temperature, followed by incubation with a donkey anti-human IgG Fcγ-specific antibody conjugated with HRP (Jackson ImmunoResearch Laboratories, Inc., West Grove, USA). Binding was determined by measurement of HRP activity in a standard colorimetric assay. EC₅₀ values were estimated by non-linear regression using GraphPad Prism software (San Diego, USA).

GA5: H-(GA)5HHHHHH-NH2 = biological target: T2, GA5: H-(GA)5HHHHHH-NH2; assay: as above
Excerpt: as §1

GA2: H-(GA)2HHHHHH-NH2 = biological target: T3, GA2: H-(GA)2HHHHHH-NH2; assay: as above
Excerpt: as §1

GA3: H-(GA)3HHHHHH-NH2 = biological target: T4, GA3: H-(GA)3HHHHHH-NH2; assay: as above
Excerpt: as §1

[2] = biological target: T5, BSA-coupled (GP)15 DPR protein peptide; assay: Western blot, BSA-coupled peptide
Method: (§2) Resolved proteins were then electroblotted (Novex® Semi-Dry Blotter, 1 h, 25V) on methanol-activated PVDF membranes (Immobilon®-P Transfer Membrane, Merck & Cie, Schaffhausen, Switzerland) by the use of Novex® NuPAGE® transfer buffer 2× (Life Technologies Europe B.V., Zug, Switzerland). Non-specific binding sites were blocked overnight at 4° C. (or alternatively for 1 h at room temperature) with PBS/0.1% Tween®-20 containing 2% BSA (Sigma-Aldrich, Buchs, Switzerland) (PBST). […] Membranes were washed three times in PBST for 15 min at RT and then incubated with a donkey anti-human IgG Fcγ-specific antibody conjugated with HRP (1:20000 or 1:10000 dilution, Jackson ImmunoResearch Laboratories, Inc., West Grove, USA) for 1 h at room temperature. Antibody binding was determined by membrane development using ECL and ImageQuant 350 detection (GE Healthcare, Otelfingen, Switzerland).
(§3) The binding specificity of the human-derived antibodies to BSA-coupled C9orf72 dipeptide repeat proteins (GA)₁₅, (GP)₁₅, (GR)₁₅, (PA)₁₅ and (PR)₁₅ was determined by Western blot analysis.

[3] = biological target: T6, BSA-coupled (PA)15 DPR protein peptide (bovine, UniProt P02769 25-607, conjugated via a bifunctional linker (SMCC) to bovine serum albumin); assay: Western blot, BSA-coupled peptide
T6 construct: also called BSA-(PA)15
T6 sequence (peptide, as listed by the source limits assumed, chain 1 of 2): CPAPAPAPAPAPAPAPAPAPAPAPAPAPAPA
T6 sequence (P02769 25-607 limits assumed, chain 2 of 2): as the sequence (P02769 25-607 limits assumed, chain 2 of 2) above
Method: as §2, §3

Binder	EC50 [1] [nM]	binding result (GA4: H-(GA)4HHHHHH-NH2)	binding result (GA5: H-(GA)5HHHHHH-NH2)	binding result (GA2: H-(GA)2HHHHHH-NH2)	binding result (GA3: H-(GA)3HHHHHH-NH2)	binding result [2]	binding result [3]
B1	0.21						
B2		no binding (tested: about 4x10^5 pM (last point))	no binding (tested: about 4x10^5 pM (last point))	no binding (tested: about 4x10^5 pM (last point))	no binding (tested: about 4x10^5 pM (last point))	no binding (tested: 10 nM or 100 nM)	no binding (tested: 10 nM or 100 nM)
